Here are results for eight molecules from publication PMC3565348, “Modeling of Anopheles minimus Mosquito NADPH-Cytochrome P450 Oxidoreductase (CYPOR) and Mutagenesis Analysis” (International Journal of Molecular Sciences, 2013).

Series [1] deals with T1, CYP6AA3 reconstituted with flAnCYPOR.
T1 construct: CYP6AA3 in Sf9 baculovirus microsomes; with NADPH--cytochrome P450 reductase
Description: benzyloxyresorufin O-dealkylation, fluorescence of resorufin, microsomes + purified CYPOR. As to conditions: 50 mM Tris-HCl pH 7.5; wild-type flAnCYPOR; apparent Km; read-out: CYP3AA3-mediated BROD activity (pmole resorufin produced/min/pmol P450) ^a / Km. The format is biochemical, Anopheles minimus.

The test system of series [2] is T2, CYP6AA3 reconstituted with rat CYPOR.
T2 construct: CYP6AA3 in Sf9 baculovirus microsomes; purified rat CYPOR (pIN-rat CYPOR, E. coli C43 (DE3), Ni-NTA) added, ratio 3:1; with NADPH--cytochrome P450 reductase (Rattus norvegicus)
The description is as above. The format is biochemical, Anopheles minimus. The settings on record: 50 mM Tris-HCl pH 7.5; rat CYPOR as redox partner; apparent Km; read-out: CYP3AA3-mediated BROD activity (pmole resorufin produced/min/pmol P450) ^a / Km.

The subject of series [3] is NC(=O)C1=CN([C@@H]2O[C@H](COP(=O)(O)OP(=O)(O)OC[C@H]3O[C@@H](n4cnc5c(N)ncnc54)[C@H](OP(=O)(O)O)[C@@H]3O)[C@@H](O)[C@H]2O)C=CC1. Description: purified protein. The format is biochemical, Anopheles minimus. As to conditions: 0.1 M Tris-Cl pH 7.5, 25 °C, co-substrate cytochrome c, extra flavins added.
The target in a further series is T3, Δ55AnCYPOR (Anopheles minimus, UniProt A4ZIT2).
T3 construct: soluble form lacking the N-terminal membrane region (Δ55), pET28a vector, expressed in E. coli BL21 (DE3), purified
T3 sequence (A4ZIT2 56-679): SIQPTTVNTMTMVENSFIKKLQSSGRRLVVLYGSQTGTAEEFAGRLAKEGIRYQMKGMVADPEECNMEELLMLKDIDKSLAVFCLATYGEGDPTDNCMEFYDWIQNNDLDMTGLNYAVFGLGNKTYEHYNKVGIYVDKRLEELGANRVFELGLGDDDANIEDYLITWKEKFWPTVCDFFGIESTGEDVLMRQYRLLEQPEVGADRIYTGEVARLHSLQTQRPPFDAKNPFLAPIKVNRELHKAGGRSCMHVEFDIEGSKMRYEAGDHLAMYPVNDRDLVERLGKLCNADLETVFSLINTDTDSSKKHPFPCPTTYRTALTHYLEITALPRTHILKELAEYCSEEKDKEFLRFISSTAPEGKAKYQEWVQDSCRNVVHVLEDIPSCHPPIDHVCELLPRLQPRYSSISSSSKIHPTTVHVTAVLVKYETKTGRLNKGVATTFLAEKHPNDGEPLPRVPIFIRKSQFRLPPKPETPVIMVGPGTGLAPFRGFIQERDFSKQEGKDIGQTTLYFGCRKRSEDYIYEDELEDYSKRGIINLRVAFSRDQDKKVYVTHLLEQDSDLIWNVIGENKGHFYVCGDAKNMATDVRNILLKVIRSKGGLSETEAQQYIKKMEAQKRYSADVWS
Description: flavin content of purified protein, fluorometric. The settings on record: co-purified flavin; no affinity constant. The format is binding. An excerpt:
flavin content of purified protein, fluorometric on Δ55AnCYPOR

Substrate in the series “purified protein”: NC(=O)C1=CN([C@@H]2O[C@H](COP(=O)(O)OP(=O)(O)OC[C@H]3O[C@@H](n4cnc5c(N)ncnc54)[C@H](OP(=O)(O)O)[C@@H]3O)[C@@H](O)[C@H]2O)C=CC1
Description: purified protein. As to conditions: 0.1 M Tris-Cl pH 7.5, 25 °C, co-substrate cytochrome c, extra flavins added.

Turning to `O=c1ccc2nc3ccc(OCc4ccccc4)cc3oc-2c1` [benzyloxyresorufin], the results for the Km in series [1] and in series [2] were 1.9 ± 0.61 µM and 1.69 ± 0.24 µM, respectively.
With “Δ55AnCYPOR (Anopheles minimus; L219F/L86F/W678H)”, the Km in series [3] came out at 1.91 ± 0.44 µM.
Same read-out and setting: with “Δ55AnCYPOR (Anopheles minimus; L219F/L86F/W678A)” the figure was 3.34 ± 0.83 µM.
The same measure, in the same setting: with “Δ55AnCYPOR (Anopheles minimus; L219F/L86F)” the figure was 6.49 ± 1.19 µM.
For `Cc1cc2nc3c(=O)[nH]c(=O)nc-3n(C[C@H](O)[C@H](O)[C@H](O)COP(=O)(O)OP(=O)(O)OC[C@H]3O[C@@H](n4cnc5c(N)ncnc54)[C@H](O)[C@@H]3O)c2cc1C` [FAD], the “FAD ^a” value on Δ55AnCYPOR was found to be 0.64 ± 0.03 mol/mol.
Consider `Cc1cc2nc3c(=O)[nH]c(=O)nc-3n(C[C@H](O)[C@H](O)[C@H](O)COP(=O)(O)O)c2cc1C` [FMN], for which the “FMN ^a” value on Δ55AnCYPOR worked out at 0.52 ± 0.01 mol/mol.
On to “Δ55AnCYPOR (Anopheles minimus; C427R/L219F/L86F)”, for which, in series [3], the Km is 7.02 ± 1.75 µM.

B1: Δ55AnCYPOR (Anopheles minimus) (protein)
chain: T3 sequence (A4ZIT2 56-679)
Turning to B1, the Km in “purified protein” was found to be 9.61 ± 0.30 µM.
